# Substitutions are numbered along the chain they refer to.
# T1: hICOS on HEK293 cells (human, UniProt Q9Y6W8 21-199)
# T1 construct: whole, on cells
# T1 sequence (looked up): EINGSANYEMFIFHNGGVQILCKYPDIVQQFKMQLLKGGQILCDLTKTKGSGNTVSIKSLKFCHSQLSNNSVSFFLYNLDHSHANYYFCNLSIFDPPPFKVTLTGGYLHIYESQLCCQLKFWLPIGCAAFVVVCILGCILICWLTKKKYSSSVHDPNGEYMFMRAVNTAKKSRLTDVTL
# T2: hPDL2 on HEK293 cells (human, UniProt Q9BQ51 20-273)
# T2 construct: whole, on cells
# T2 sequence (looked up): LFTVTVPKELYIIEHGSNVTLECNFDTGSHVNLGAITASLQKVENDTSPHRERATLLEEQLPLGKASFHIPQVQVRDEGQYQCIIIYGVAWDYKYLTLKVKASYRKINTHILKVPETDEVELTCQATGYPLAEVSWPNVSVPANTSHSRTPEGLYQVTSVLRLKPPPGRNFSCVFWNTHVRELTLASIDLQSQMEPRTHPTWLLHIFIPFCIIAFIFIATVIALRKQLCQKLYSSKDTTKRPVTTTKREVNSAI
# B1: Ab55h-PM17 (antibody, V domains shown)
# VH: QVQLQESGPGLVKPSETLSLTCAVSGYSISGDYYWGWIRQPPGKGLEWIGSIYHSGYTYYNPSLKSRVTISVDTSKNQFSLKLSSVTAADTAVYYCARDSGWYVIAFDYWGQGTLVTVSS
# VL: EIVMTQSPATLSVSPGERATLSCRASQSVSSNLAWYQEKPGQAPRLLIYGASTRATGIPARFSGSGSGTEFTLTISSLQSEDFAVYYCQQYNVWPPLTFGGGTKVEIK
# B2: Ab55h-PM19 (antibody, V domains shown)
# VH: B1 VH
# VL: B1 VL with S30G, V93N
# B3: Ab55h-PM24 (antibody, V domains shown)
# VH: B1 VH with S100V, Y109I
# VL: B1 VL with V93N
# B4: Ab55h-PM-R9 (antibody, V domains shown)
# VH: B1 VH with Y103S
# VL: B1 VL with V93N
# B5: Ab55h-PM18 (antibody, V domains shown)
# VH: B1 VH with G31S
# VL: B1 VL with V93N
# B6: Ab55h-PM21 (antibody, V domains shown)
# VH: B1 VH
# VL: B1 VL with V93N, W94S
# B7: Ab55h-PM20 (antibody, V domains shown)
# VH: B1 VH
# VL: B1 VL with S30Y, V93N
# B8: Ab55h-PM-R6 (antibody, V domains shown)
# VH: B1 VH
# VL: B1 VL with V93S
# B9: Ab55h-PM28 (antibody, V domains shown)
# VH: B1 VH with A106G, F107Y
# VL: B1 VL with V93N
# B10: Ab55h-PM23 (antibody, V domains shown)
# VH: B1 VH
# VL: B1 VL with V93N, L97F
# B11: Ab55h-PM-R5 (antibody, V domains shown)
# VH: B1 VH
# VL: B1 VL with N92G, V93N
# B12: Ab55h-PM27 (antibody, V domains shown)
# VH: B1 VH with W102F, Y109I
# VL: B1 VL with V93N
# B13: Ab55h-PM22 (antibody, V domains shown)
# VH: B1 VH
# VL: B1 VL with V93N, L97I
# B14: Ab55h-PM26 (antibody, V domains shown)
# VH: B1 VH with S100V, W102F, Y109I
# VL: B1 VL with V93N
# B15: Ab55h-PM25 (antibody, V domains shown)
# VH: B1 VH with S100V, W102F
# VL: B1 VL with V93N
# B16: Ab47h (antibody, V domains shown)
# VH: QVQLVESGGGVVQPGRSLRLSCAASGFTFSNYGIHWVRQAPGKGLEWVAAIWYDGNNKYYADSVKDRFTISRDNSKNTLYLQMNSLRVEDTAVYYCARNGVLGAFDIWGQGTMVTVSS
# VL: DIQMTQSPSSLSASVGDRVTITCRASQGISNYLAWYQQKPGKVPKLLIYAASTLQSGVPSRFSGSGSGTDFTLTISSLQPEDVATYYCQKYNSSPWTFGQGTKVEIK
# B17: Ipilimumab (antibody, V domains shown)
# VH: QVQLVESGGGVVQPGRSLRLSCAASGFTFSSYTMHWVRQAPGKGLEWVTFISYDGNNKYYADSVKGRFTISRDNSKNTLYLQMNSLRAEDTAIYYCARTGWLGPFDYWGQGTLVTVSS
# VL: not shown
# Tests used:
# [1] = target: T3, human CTLA-4 expressed on cells (human, UniProt P16410 36-223); experiment: flow cytometry on HEK293-hCTLA-4 cells
# T3 construct: whole, on cells; On stably or transiently transfected HEK293 cells; also called hCTLA-4; HEK293-hCTLA-4 cells
# T3 sequence (P16410 36-223): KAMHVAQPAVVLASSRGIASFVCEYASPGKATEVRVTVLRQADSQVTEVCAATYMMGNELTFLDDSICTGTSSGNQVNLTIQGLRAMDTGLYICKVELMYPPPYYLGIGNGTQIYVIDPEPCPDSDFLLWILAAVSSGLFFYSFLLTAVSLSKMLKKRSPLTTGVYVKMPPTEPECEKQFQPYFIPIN
# Description: To test the binding of antibodies to CTLA-4 under more physiological conditions, the binding of CTLA-4 antibodies to cell-surface CTLA-4 was tested. […] The surface expression of hCTLA-4 in the obtained cell line was tested using a commercial anti-CTLA-4 antibody and compared to the parent cell line (HEK293 without transfection). […] The anti-CTLA-4 antibodies were incubated in serial dilution concentrations with the HEK293-hCTLA-4 cells for 1 hour on ice. Following a wash step, an anti-human antibody conjugated to ALEXA FLUOR® 647® was added for an additional hour. The cells were washed, and propidium iodide (PI) was added to exclude dead cells. The fluorescent signal was measured using FACS and analyzed. Dead cells were removed based on the PI signal. The population was gated based on forward and side scatter (FSC and SSC) parameters, and doublets were removed. The Median Fluorescent Intensity (MFI) of the appropriate channel was calculated for the live single cells from each group. The MFI was plotted versus antibody concentration in Prism software (V6.01) and kinetic parameters were obtained using a curve fit dose response function with four parameters. […] The lower EC₅₀ values indicate increased binding affinity to cell surface hCTLA-4.
# [2] = target: T3, human CTLA-4 expressed on cells; experiment: flow cytometry on HEK293 cells overexpressing human CTLA-4, serial dilution, MFI
# Description: HEK293 cells were prepared as described above. […] Binding was measured using FACS.
# [3] = target: T4, Recombinant human CTLA-4-his (Sino Biologicals, 11159-H08H) (human, UniProt P16410 36-162); experiment: SPR (Biacore T100), antibody captured on anti-human chip, CTLA-4-his in solution
# T4 construct: Bought protein; also called dimer hCTLA-4; not shown: his tag
# T4 sequence (P16410 36-162 limits assumed): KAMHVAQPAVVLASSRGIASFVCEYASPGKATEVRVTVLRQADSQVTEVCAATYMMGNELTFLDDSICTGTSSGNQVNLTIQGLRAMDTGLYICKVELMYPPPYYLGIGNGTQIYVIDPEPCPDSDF
# Description: Recombinant human CTLA-4-his (Sino Biologicals, 11159-H08H) was added in a serial 2-fold dilution, starting at a concentration of 500nM. […] The measurement was corrected using the baseline channel and the protein-antibody interaction was measured by the change in surface resonance and quantified with Biacore T100 control software (version 2.0.4).
# [4] = target: T5, Pig (Sus scrofa) CTLA-4 on HEK293 cells (Sus scrofa, UniProt Q9MYX7 36-223); experiment: flow cytometry on HEK293 cells transiently expressing pig CTLA-4
# T5 construct: whole, on cells; also called pig CTLA-4
# T5 sequence (Q9MYX7 36-223): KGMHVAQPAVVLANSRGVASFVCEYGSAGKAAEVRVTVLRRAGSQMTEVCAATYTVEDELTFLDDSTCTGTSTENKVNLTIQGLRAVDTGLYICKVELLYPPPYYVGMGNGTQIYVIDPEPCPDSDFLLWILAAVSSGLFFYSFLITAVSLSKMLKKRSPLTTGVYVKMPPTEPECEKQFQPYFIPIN
# Description: Macaque (Macaca fascicularis), pig (Sus scrofa) and mouse (Mus musculus) CTLA-4 proteins were transiently expressed on the surface of HEK293 cells. […] Binding was measured using FACS and analyzed.
# hICOS on HEK293 cells = target: T1, hICOS on HEK293 cells; experiment: flow cytometry on transfected HEK293 cells
# Description: (§1) HEK293 cells were transfected with expression vectors of the following immune-related proteins: hBTLA, hICOS, hCD28, hPDL1, hPD1, hPDL2, and hCTLA-4. Over-expression of the proteins was verified using commercial antibodies against each target. […] Antibody binding to cells was then detected using flow cytometry. Cells that were incubated only with the secondary antibody were used as a background control. […] Note that “+” indicates binding above the background level and “-” indicate no binding as compared to the background level.
# hPD1 on HEK293 cells = target: T6, hPD1 on HEK293 cells (human, UniProt Q15116 25-288); experiment: flow cytometry on transfected HEK293 cells
# T6 construct: whole, on cells
# T6 sequence (Q15116 25-288): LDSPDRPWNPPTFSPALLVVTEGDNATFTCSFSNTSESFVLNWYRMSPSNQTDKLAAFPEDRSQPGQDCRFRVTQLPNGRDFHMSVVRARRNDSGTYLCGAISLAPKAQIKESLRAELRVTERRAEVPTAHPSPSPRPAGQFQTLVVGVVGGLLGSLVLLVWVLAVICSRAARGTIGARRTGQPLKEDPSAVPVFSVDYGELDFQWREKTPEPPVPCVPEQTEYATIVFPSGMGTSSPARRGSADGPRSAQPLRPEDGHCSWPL
# Description: as §1
# hCD28 on HEK293 cells = target: T7, hCD28 on HEK293 cells (human, UniProt P10747 19-220); experiment: flow cytometry on transfected HEK293 cells
# T7 construct: whole, on cells
# Description: as §1
# hBTLA on HEK293 cells = target: T8, hBTLA on HEK293 cells (human, UniProt Q7Z6A9 31-289); experiment: flow cytometry on transfected HEK293 cells
# T8 construct: whole, on cells
# Description: as §1
# hPDL1 on HEK293 cells = target: T9, hPDL1 on HEK293 cells (human, UniProt Q9NZQ7 19-290); experiment: flow cytometry on transfected HEK293 cells
# T9 construct: whole, on cells
# T9 sequence (Q9NZQ7 19-290): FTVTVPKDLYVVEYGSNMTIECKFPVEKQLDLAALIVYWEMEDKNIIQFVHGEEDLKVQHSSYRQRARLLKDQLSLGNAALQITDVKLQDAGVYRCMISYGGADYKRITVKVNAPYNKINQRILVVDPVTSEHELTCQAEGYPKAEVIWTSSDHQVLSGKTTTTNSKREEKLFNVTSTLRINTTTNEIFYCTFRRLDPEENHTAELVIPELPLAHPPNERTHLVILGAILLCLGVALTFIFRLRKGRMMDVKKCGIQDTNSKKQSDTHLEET
# Description: as §1
# hPDL2 on HEK293 cells = target: T2, hPDL2 on HEK293 cells; experiment: flow cytometry on transfected HEK293 cells
# Description: as §1
binder,measurement,setting,value
B1,EC50,[1],0.31 nM
B2,EC50,[1],0.12 nM
B3,EC50,[1],0.2 nM
B4,binding result,[2],binds
B5,EC50,[1],0.21 nM
B6,EC50,[1],0.22 nM
B7,EC50,[1],0.19 nM
B8,binding result,[2],binds
B9,EC50,[1],0.31 nM
B10,EC50,[1],0.22 nM
B11,EC50 (read off the curve),[2],~0.2 nM
B12,EC50,[1],0.2 nM
B13,EC50,[1],0.09 nM
B14,EC50,[1],0.35 nM
B15,EC50,[1],0.34 nM
B16,Kd,[3],10 nM
B17,EC50,[4],671 nM
same,MFI,hICOS on HEK293 cells,67 MFI
same,MFI,hPD1 on HEK293 cells,77 MFI
same,MFI,hCD28 on HEK293 cells,67 MFI
same,MFI,hBTLA on HEK293 cells,67 MFI
same,MFI,hPDL1 on HEK293 cells,70 MFI
same,MFI,hPDL2 on HEK293 cells,73 MFI

# — patent publication US20210355220A1 (TIKCRO TECHNOLOGIES, published 2021)
